The data set concerns Saccharomyces cerevisiae. The experiment in a line: protein stability index of tFT-peptide fusion (C-terminal peptide) (PSI (0-1 scale)); higher = more stable (slower turnover). To be noted: temperature: 30 C. How it is done: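 MPS profiling in S. cerevisiae of the yeast C-terminome library: the last 12 aa of each annotated ORF are fused to the C-terminus of a sfGFP-mCherry timer, after a GGGS linker. Cells are FACS-sorted into 8 mCherry/sfGFP bins and deep-sequenced. PSI runs from 0 (unstable) to 1 (stable); wild type and das1Δ backgrounds, two technical replicates each.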

[1] abbreviates: genetic background: das1 deletion.

For 28 sequences, protein stability index results are on record in the supplement of paper PMC10724198.

± gives the standard deviation of the averaged measurements.

For NILFVMKEGRIY [YJL213W C-terminal 12 aa], the protein stability index runs as follows: under setting [1], 0.681 ± 0.016; (genetic background: wild type) 0.711 ± 0.056.

Take NIREARYEQQLK [CTF4 C-terminal 12 aa]: the protein stability index under setting [1] worked out at 0.733 ± 0.035 and the protein stability index (genetic background: wild type) amounted to 0.689 ± 0.03.

Regarding NIYNPMDEEENQ [TFB5 C-terminal 12 aa], the protein stability index is, setting by setting: under setting [1], 0.718 ± 0.025; (genetic background: wild type) 0.683 ± 0.032.

For the sequence NLEATNNKKPPL [DAD4 C-terminal 12 aa], the protein stability index turned out to be 0.6963 ± 0.0043 under setting [1] and 0.6968 ± 0.00081 (genetic background: wild type).

On to NLMEMFTKRDRS [ROD1 C-terminal 12 aa], for which the protein stability index by setting is: under setting [1], 0.72 ± 0.022; (genetic background: wild type) 0.713 ± 0.033.

Take NLNQHVKTHASL [COM2 C-terminal 12 aa]: the protein stability index runs as follows: under setting [1], 0.6752 ± 0.0042; (genetic background: wild type) 0.681 ± 0.029.

Turning to NMRFFYRLYVKN [BMT6 C-terminal 12 aa], the protein stability index is 0.489 ± 0.015 under setting [1] and 0.45 ± 0.0084 (genetic background: wild type).

Turning to NNFCALYNLSNP [RPN14 C-terminal 12 aa], the protein stability index runs as follows: under setting [1], 0.714 ± 0.022; (genetic background: wild type) 0.6867 ± 0.0038.

For NNTFLDVQAKSN [IMP1 C-terminal 12 aa], the protein stability index is 0.6944 ± 0.0068 under setting [1] and 0.712 ± 0.026 (genetic background: wild type).

Take NRFGVLPDDVEE [ECM1 C-terminal 12 aa]: the protein stability index worked out at 0.714 ± 0.024 under setting [1] and 0.704 ± 0.032 (genetic background: wild type).

In turn, NSAAFLLMSLKS [STB3 C-terminal 12 aa] gave a protein stability index under setting [1] of 0.674 ± 0.0086 and a protein stability index (genetic background: wild type) of 0.679 ± 0.011.

On to NSAFSSASVTKP [YFR057W C-terminal 12 aa], for which the protein stability index worked out at 0.711 ± 0.0094 under setting [1] and 0.682 ± 0.023 (genetic background: wild type).

On to NSALSSTSTLAI [RIB1 C-terminal 12 aa], for which the protein stability index runs as follows: under setting [1], 0.6419 ± 0.0051; (genetic background: wild type) 0.64 ± 0.04.

NSLTQKYGTNNV [AAD15 C-terminal 12 aa]: the protein stability index stood at 0.698 ± 0.016 under setting [1] and 0.697 ± 0.029 (genetic background: wild type).

As for NSSGEFQLESLF [MRI1 C-terminal 12 aa], the protein stability index is, setting by setting: under setting [1], 0.707 ± 0.023; (genetic background: wild type) 0.698 ± 0.051.

As to NSVDWIYSWGKN [MIC12 C-terminal 12 aa], the protein stability index under setting [1] is 0.716 ± 0.03 and the protein stability index (genetic background: wild type) came out at 0.74 ± 0.019.

In turn, NTAGQKPTEYHY [APA2 C-terminal 12 aa] showed a protein stability index under setting [1] of 0.7199 ± 0.0016 and a protein stability index (genetic background: wild type) of 0.702 ± 0.019.

For the sequence NTEQAYSQPFRY [NVJ1 C-terminal 12 aa], the protein stability index by setting is: under setting [1], 0.702 ± 0.021; (genetic background: wild type) 0.722 ± 0.016.

With NTESSDKGAKIQ [SIN3 C-terminal 12 aa], the protein stability index is 0.701 ± 0.035 under setting [1] and 0.664 ± 0.012 (genetic background: wild type).

As to NTGFDPHLEDGM [TBF1 C-terminal 12 aa], the protein stability index by setting is: under setting [1], 0.708 ± 0.032; (genetic background: wild type) 0.691 ± 0.039.

As to NTKHYNDTLLKQ [PHO11 C-terminal 12 aa], the protein stability index is, setting by setting: under setting [1], 0.718 ± 0.0081; (genetic background: wild type) 0.66 ± 0.0066.

For NTTRYNASLVNQ [DIA3 C-terminal 12 aa], the protein stability index is 0.741 ± 0.031 under setting [1] and 0.712 ± 0.044 (genetic background: wild type).

As to NVIIQDKTKKTQ [MCD4 C-terminal 12 aa], the protein stability index under setting [1] came out at 0.733 ± 0.028 and the protein stability index (genetic background: wild type) turned out to be 0.671 ± 0.011.

NVKSSTQEKDSK [SGN1 C-terminal 12 aa] showed a protein stability index under setting [1] of 0.706 ± 0.014 and a protein stability index (genetic background: wild type) of 0.721 ± 0.053.

As for NYEDLATTQAAS [BRN1 C-terminal 12 aa], the protein stability index is 0.722 ± 0.011 under setting [1] and 0.68 ± 0.013 (genetic background: wild type).

For the sequence NYQKNEPVEFLE [MIN9 C-terminal 12 aa], the protein stability index is, setting by setting: under setting [1], 0.711 ± 0.0097; (genetic background: wild type) 0.656 ± 0.026.

In turn, PDVLRKLSHQNV [PNS1 C-terminal 12 aa] gave a protein stability index under setting [1] of 0.713 ± 0.0075 and a protein stability index (genetic background: wild type) of 0.666 ± 0.025.

The sequence PENGSLFEFDDN [SNU66 C-terminal 12 aa] came in with a protein stability index under setting [1] of 0.6962 ± 0.005 and a protein stability index (genetic background: wild type) of 0.6836 ± 0.0039.
